Reference: IntAct's records for PubMed 29892012

B1: RNA-binding protein 3 (Homo sapiens), P98179 (parent)
chain: MSSEEGKLFVGGLNFNTDEQALEDHFSSFGPISEVVVVKDRETQRSRGFGFITFTNPEHASVAMRAMNGESLDGRQIRVDHAGKSARGTRGGGFGAHGRGRSYSRGGGDQGYGSGRYYDSRPGGYGYGYGRSRDYNGRNQGGYDRYSGGNYRDNYDN
partner: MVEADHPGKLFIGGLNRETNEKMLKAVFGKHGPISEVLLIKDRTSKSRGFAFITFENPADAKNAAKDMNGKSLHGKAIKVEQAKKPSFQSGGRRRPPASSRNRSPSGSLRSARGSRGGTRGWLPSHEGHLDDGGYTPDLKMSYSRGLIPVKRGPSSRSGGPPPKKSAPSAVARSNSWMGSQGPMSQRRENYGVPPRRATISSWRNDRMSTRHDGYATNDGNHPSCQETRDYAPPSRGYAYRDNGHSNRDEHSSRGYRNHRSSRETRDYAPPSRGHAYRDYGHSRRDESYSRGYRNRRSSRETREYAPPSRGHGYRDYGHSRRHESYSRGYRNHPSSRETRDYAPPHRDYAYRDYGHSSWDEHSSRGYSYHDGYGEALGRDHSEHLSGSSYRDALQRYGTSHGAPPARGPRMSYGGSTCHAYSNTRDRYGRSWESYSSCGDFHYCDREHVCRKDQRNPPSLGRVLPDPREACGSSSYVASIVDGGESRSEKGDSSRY
B2: Acetylcholine receptor subunit gamma (Homo sapiens), P07510 (parent)
chain: MHGGQGPLLLLLLLAVCLGAQGRNQEERLLADLMQNYDPNLRPAERDSDVVNVSLKLTLTNLISLNEREEALTTNVWIEMQWCDYRLRWDPRDYEGLWVLRVPSTMVWRPDIVLENNVDGVFEVALYCNVLVSPDGCIYWLPPAIFRSACSISVTYFPFDWQNCSLIFQSQTYSTNEIDLQLSQEDGQTIEWIFIDPEAFTENGEWAIQHRPAKMLLDPAAPAQEAGHQKVVFYLLIQRKPLFYVINIIAPCVLISSVAILIHFLPAKAGGQKCTVAINVLLAQTVFLFLVAKKVPETSQAVPLISKYLTFLLVVTILIVVNAVVVLNVSLRSPHTHSMARGVRKVFLRLLPQLLRMHVRPLAPAAVQDTQSRLQNGSSGWSITTGEEVALCLPRSELLFQQWQRQGLVAAALEKLEKGPELGLSQFCGSLKQAAPAIQACVEACNLIACARHQQSHFDNGNEEWFLVGRVLDRVCFLAMLSLFICGTAGIFLMAHYNRVPALPFPGDPRPYLPSPD
B3: Late cornified envelope protein 1B (Homo sapiens), Q5T7P3 (parent)
chain: MSCQQNQQQCQPPPKCIPKCPPKCLTPRCPPKCPPKCPPVSSCCSVSSGGCCGSSSGGSCGSSSGGCCSSGGGGCCLSHHRRRRSHCHRPQSSGCCSQPSGGSSCCGGGSGQHSGGCC
partner: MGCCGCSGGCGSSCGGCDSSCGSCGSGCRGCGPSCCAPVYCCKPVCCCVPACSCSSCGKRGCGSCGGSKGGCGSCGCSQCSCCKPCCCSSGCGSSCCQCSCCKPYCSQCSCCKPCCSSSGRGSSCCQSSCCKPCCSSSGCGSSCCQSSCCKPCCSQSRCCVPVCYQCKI
B4: Tumor suppressor candidate 2 (Homo sapiens), O75896 (parent)
chain: MGASGSKARGLWPFASAAGGGGSEAAGAEQALVRPRGRAVPPFVFTRRGSMFYDEDGDLAHEFYEETIVTKNGQKRAKLRRVHKNLIPQGIVKLDHPRIHVDFPVILYEV
B5: Abl interactor 2 (Homo sapiens), Q9NYB9 (parent)
chain: MAELQMLLEEEIPGGRRALFDSYTNLERVADYCENNYIQSADKQRALEETKAYTTQSLASVAYLINTLANNVLQMLDIQASQLRRMESSINHISQTVDIHKEKVARREIGILTTNKNTSRTHKIIAPANLERPVRYIRKPIDYTILDDIGHGVKWLLRFKVSTQNMKMGGLPRTTPPTQKPPSPPMSGKGTLGRHSPYRTLEPVRPPVVPNDYVPSPTRNMAPSQQSPVRTASVNQRNRTYSSSGSSGGSHPSSRSSSRENSGSGSVGVPIAVPTPSPPSVFPAPAGSAGTPPLPATSASAPAPLVPATVPSSTAPNAAAGGAPNLADGFTSPTPPVVSSTPPTGHPVQFYSMNRPASRHTPPTIGGSLPYRRPPSITSQTSLQNQMNGGPFYSQNPVSDTPPPPPPVEEPVFDESPPPPPPPEDYEEEEAAVVEYSDPYAEEDPPWAPRSYLEKVVAIYDYTKDKEDELSFQEGAIIYVIKKNDDGWYEGVMNGVTGLFPGNYVESIMHYSE
partner: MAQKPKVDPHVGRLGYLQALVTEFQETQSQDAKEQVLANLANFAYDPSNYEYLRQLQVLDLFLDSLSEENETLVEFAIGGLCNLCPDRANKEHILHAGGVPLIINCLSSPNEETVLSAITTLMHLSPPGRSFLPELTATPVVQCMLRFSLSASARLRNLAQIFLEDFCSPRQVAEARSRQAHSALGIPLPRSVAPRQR
B6: Melanoma-associated antigen 8 (Homo sapiens), P43361 (parent)
chain: MLLGQKSQRYKAEEGLQAQGEAPGLMDVQIPTAEEQKAASSSSTLIMGTLEEVTDSGSPSPPQSPEGASSSLTVTDSTLWSQSDEGSSSNEEEGPSTSPDPAHLESLFREALDEKVAELVRFLLRKYQIKEPVTKAEMLESVIKNYKNHFPDIFSKASECMQVIFGIDVKEVDPAGHSYILVTCLGLSYDGLLGDDQSTPKTGLLIIVLGMILMEGSRAPEEAIWEALSVMGLYDGREHSVYWKLRKLLTQEWVQENYLEYRQAPGSDPVRYEFLWGPRALAETSYVKVLEHVVRVNARVRISYPSLHEEALGEEKGV
partner: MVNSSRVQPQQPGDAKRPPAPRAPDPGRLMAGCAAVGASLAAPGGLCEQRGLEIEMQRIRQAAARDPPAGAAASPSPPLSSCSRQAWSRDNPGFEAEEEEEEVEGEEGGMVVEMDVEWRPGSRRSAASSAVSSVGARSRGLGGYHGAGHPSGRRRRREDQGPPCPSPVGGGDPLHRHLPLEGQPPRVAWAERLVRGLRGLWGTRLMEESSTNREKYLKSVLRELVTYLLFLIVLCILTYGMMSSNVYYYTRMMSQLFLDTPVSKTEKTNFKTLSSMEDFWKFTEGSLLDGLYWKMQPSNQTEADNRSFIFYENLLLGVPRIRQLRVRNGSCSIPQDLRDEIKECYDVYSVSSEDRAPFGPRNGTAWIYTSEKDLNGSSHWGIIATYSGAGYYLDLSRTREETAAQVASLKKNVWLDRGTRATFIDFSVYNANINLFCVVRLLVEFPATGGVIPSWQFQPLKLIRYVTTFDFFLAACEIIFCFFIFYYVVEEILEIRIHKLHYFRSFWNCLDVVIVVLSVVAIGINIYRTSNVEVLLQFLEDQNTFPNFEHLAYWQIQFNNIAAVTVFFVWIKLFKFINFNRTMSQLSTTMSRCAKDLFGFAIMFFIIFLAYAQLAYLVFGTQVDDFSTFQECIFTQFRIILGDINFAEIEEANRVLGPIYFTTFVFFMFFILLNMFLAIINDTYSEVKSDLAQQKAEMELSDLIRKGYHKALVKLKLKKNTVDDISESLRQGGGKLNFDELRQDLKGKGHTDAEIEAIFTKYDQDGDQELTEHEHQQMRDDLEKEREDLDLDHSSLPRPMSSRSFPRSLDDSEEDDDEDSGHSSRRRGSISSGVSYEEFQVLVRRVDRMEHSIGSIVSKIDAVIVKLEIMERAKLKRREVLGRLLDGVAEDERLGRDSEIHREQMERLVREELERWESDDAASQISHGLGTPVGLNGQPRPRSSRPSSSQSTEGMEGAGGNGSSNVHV
B7: E3 ubiquitin-protein ligase LNX (Homo sapiens), Q8TBB1 (parent)
chain: MNQPESANDPEPLCAVCGQAHSLEENHFYSYPEEVDDDLICHICLQALLDPLDTPCGHTYCTLCLTNFLVEKDFCPMDRKPLVLQHCKKSSILVNKLLNKLLVTCPFREHCTQVLQRCDLEHHFQTSCKGASHYGLTKDRKRRSQDGCPDGCASLTATAPSPEVSAAATISLMTDEPGLDNPAYVSSAEDGQPAISPVDSGRSNRTRARPFERSTIRSRSFKKINRALSVLRRTKSGSAVANHADQGRENSENTTAPEVFPRLYHLIPDGEITSIKINRVDPSESLSIRLVGGSETPLVHIIIQHIYRDGVIARDGRLLPGDIILKVNGMDISNVPHNYAVRLLRQPCQVLWLTVMREQKFRSRNNGQAPDAYRPRDDSFHVILNKSSPEEQLGIKLVRKVDEPGVFIFNVLDGGVAYRHGQLEENDRVLAINGHDLRYGSPESAAHLIQASERRVHLVVSRQVRQRSPDIFQEAGWNSNGSWSPGPGERSNTPKPLHPTITCHEKVVNIQKDPGESLGMTVAGGASHREWDLPIYVISVEPGGVISRDGRIKTGDILLNVDGVELTEVSRSEAVALLKRTSSSIVLKALEVKEYEPQEDCSSPAALDSNHNMAPPSDWSPSWVMWLELPRCLYNCKDIVLRRNTAGSLGFCIVGGYEEYNGNKPFFIKSIVEGTPAYNDGRIRCGDILLAVNGRSTSGMIHACLARLLKELKGRITLTIVSWPGTFL
partner: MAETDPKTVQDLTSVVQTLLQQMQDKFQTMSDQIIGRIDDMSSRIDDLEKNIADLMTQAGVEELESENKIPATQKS

Variants of: B1
Settings: with rby1a_human RBMY1A1, P0DJD3

Variant	effect of a mutation on the interaction
R145H	with no effect

Variants of: B2
Settings: with kr108_human KRTAP10-8, P60410
Chain of kr108_human KRTAP10-8, P60410 (P60410 whole entry): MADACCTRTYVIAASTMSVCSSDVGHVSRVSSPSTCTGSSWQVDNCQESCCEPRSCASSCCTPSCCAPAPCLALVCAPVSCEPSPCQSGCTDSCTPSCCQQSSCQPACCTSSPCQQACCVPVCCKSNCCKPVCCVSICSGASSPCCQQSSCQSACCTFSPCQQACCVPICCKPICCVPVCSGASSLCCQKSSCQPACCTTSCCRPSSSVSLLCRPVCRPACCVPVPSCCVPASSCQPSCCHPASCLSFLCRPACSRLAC

Variant	effect of a mutation on the interaction
I448T	with no effect

Variants of: B2
Settings: with kr103_human KRTAP10-3, P60369
Chain of kr103_human KRTAP10-3, P60369 (P60369 whole entry): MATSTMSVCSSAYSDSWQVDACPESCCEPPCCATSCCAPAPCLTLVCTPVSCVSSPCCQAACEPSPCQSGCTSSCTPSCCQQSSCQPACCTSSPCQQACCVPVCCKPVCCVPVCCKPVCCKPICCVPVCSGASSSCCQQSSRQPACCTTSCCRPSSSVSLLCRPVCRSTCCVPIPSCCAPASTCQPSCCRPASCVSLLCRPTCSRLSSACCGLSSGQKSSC

Variant	effect of a mutation on the interaction
I448T	with no effect

Variants of: B2
Settings: with k1h1_human KRT31, Q15323
Chain of k1h1_human KRT31, Q15323 (Q15323 whole entry): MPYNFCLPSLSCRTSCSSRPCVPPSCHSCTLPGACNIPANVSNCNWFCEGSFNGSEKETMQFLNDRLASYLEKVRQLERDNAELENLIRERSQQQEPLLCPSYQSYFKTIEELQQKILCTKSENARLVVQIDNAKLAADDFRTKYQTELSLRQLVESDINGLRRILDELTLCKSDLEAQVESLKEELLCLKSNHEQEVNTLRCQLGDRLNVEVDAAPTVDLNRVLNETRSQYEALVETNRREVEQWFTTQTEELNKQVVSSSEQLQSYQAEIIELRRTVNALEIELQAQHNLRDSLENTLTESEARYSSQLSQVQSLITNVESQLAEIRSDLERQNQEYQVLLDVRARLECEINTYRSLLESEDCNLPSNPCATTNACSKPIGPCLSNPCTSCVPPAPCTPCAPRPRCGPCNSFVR

Variant	effect of a mutation on the interaction
I448T	with no effect

Variants of: B2
Settings: with nt2na_human NOTCH2NLA

Variant	effect of a mutation on the interaction
I448T	with no effect

Variants of: B3
Settings: with kra59_human KRTAP5-9, P26371

Variant	effect of a mutation on the interaction
C16Y	disrupting interaction strength

Variants of: B4
Settings: with rbpms_human RBPMS

Variant	effect of a mutation on the interaction
R76Q	with no effect

Variants of: B4
Settings: with mdfi_human MDFI

Variant	effect of a mutation on the interaction
R76Q	disrupting interaction strength

Variants of: B5
Settings: with armc7_human ARMC7, Q9H6L4

Variant	effect of a mutation on the interaction
E202K	with no effect

Variants of: B6
Settings: with pkd2_human PKD2, Q13563

Variant	effect of a mutation on the interaction
R218C	disrupting interaction strength

Variants of: B7
Settings: with hsbp1_human HSBP1, O75506

Variant	effect of a mutation on the interaction
E295K	disrupting interaction strength
